Laboratory results from patent US20230279089A1 (GlaxoSmithKline, published 2023).
Positions count from the first letter of the chain named. Values belong to the binder of their own block, whether it stands above or below them.

Legend:
Assay in all cases: cell-based or functional assay
Human TLL2 = molecular target: T1, Human TLL2 (human, UniProt Q9Y6L7 150-1015, limits assumed)
T1 sequence (looked up): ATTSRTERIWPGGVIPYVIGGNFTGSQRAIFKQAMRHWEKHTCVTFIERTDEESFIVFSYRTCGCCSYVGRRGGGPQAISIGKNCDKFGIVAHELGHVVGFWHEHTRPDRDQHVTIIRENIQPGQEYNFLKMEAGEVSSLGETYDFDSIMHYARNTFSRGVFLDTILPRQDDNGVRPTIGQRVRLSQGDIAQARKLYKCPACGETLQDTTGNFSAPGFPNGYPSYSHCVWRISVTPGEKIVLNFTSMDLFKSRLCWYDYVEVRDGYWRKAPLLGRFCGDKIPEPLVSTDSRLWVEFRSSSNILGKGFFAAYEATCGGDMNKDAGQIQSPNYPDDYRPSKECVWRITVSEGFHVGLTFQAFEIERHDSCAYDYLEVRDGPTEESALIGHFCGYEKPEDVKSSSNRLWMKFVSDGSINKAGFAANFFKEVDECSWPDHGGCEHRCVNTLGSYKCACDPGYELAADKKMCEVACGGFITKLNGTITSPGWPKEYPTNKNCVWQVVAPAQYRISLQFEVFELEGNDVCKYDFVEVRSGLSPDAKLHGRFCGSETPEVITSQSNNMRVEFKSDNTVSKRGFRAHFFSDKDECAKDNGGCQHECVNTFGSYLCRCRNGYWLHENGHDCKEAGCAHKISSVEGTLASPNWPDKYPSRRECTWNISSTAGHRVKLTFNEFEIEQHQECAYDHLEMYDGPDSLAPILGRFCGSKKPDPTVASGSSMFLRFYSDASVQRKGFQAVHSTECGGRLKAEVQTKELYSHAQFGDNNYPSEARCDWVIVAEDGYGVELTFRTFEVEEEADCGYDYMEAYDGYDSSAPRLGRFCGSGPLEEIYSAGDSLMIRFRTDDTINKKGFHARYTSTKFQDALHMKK

Mouse TLL1 = molecular target: T2, Mouse TLL1 (mouse, UniProt Q62381 148-1013, limits assumed)
T2 sequence (looked up): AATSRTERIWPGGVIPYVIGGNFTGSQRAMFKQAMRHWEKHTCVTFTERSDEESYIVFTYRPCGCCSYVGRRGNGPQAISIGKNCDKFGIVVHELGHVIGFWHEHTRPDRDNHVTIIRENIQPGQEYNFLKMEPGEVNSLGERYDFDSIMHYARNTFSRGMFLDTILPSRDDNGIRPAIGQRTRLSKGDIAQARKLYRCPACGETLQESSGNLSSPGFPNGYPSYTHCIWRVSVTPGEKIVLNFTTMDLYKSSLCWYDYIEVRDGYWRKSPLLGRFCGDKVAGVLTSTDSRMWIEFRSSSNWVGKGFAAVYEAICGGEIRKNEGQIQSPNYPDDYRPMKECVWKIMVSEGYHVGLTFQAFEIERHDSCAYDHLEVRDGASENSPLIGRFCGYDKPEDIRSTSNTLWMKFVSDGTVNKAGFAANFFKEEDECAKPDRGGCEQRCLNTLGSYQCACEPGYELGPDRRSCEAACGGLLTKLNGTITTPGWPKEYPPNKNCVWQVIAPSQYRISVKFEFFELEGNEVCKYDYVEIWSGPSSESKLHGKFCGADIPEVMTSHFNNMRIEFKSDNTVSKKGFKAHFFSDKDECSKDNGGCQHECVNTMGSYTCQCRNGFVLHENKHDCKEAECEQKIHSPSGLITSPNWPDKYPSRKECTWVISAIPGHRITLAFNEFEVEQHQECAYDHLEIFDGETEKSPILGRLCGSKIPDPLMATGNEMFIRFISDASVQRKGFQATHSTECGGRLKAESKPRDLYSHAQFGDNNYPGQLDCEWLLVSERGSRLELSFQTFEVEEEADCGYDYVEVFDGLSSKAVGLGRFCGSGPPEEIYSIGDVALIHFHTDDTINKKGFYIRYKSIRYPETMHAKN

Cyno TLL1 = molecular target: T3, Cyno TLL1 (cyno, UniProt A0A1D5QYV0 148-1013 (rhesus entry))
T3 sequence: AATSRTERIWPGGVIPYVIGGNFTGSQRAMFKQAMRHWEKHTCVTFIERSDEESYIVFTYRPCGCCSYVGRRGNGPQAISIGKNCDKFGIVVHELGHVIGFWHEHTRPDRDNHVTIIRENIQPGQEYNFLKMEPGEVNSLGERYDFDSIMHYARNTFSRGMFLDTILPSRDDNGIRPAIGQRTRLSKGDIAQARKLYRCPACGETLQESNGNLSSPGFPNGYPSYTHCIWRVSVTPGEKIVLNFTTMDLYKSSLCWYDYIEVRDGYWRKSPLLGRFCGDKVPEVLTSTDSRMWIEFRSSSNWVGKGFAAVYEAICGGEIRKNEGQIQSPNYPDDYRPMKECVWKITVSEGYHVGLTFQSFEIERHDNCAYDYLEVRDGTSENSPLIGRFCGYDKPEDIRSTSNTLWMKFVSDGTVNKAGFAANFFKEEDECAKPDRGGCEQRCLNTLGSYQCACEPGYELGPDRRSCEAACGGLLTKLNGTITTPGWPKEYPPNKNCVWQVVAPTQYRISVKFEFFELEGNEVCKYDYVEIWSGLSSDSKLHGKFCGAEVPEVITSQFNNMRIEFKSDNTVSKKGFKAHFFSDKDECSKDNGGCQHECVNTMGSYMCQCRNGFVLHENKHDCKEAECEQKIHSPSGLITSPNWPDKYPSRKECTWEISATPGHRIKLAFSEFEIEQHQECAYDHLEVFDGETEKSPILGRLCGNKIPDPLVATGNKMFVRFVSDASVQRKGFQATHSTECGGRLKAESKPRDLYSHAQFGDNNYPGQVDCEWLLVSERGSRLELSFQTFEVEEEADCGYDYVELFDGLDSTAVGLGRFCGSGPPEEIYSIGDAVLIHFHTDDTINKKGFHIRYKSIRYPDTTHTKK

IC50, FRET enzyme activity, 500 pM huTLL-2 (Human TLL2): 0.09 nM
IC50, FRET enzyme activity, 800 pM biotinylated mTLL-1 (Mouse TLL1): 0.16 nM
IC50, FRET enzyme activity, 750 pM biotinylated cynoTLL-1 (Cyno TLL1): 0.15 nM
B3: 13Y039-4B06-4376 (antibody, human IgG1, kappa, V domains shown)
VH: QVQLVQSGAEVKKPGASVKVSCKASGYTFMGYYMNWVRQAPGQGLEWMGWINPSSGETNYAQKFQGRVTMTRDTSISTAYMELSRLRSDDTAVYYCARDTGELDGMNWYFDLWGRGTLVTVSS
VL: EIVLTQSPATLSLSPGERATLSCRASQSVSSYLAWYQQKPGQAPRLLIYDASNRATGIPARFSGSGSGTDFTLTISSLEPEDFAVYYCQQSDSWPPTFGGGTKVEIKR
notes: Fully human IgG1 LAGA, kappa; HEK expressed

IC50, FRET enzyme activity, 500 pM huTLL-2 (Human TLL2): 0.03 nM
IC50, FRET enzyme activity, 800 pM biotinylated mTLL-1 (Mouse TLL1): 0.14 nM
IC50, FRET enzyme activity, 750 pM biotinylated cynoTLL-1 (Cyno TLL1): 0.13 nM
B4: 13Y039-4B06-4351 (antibody, human IgG1, kappa, V domains shown)
VH: B3 VH with M30S, N35S, S54N, N59F
VL: B3 VL
notes: as for B3

IC50, FRET enzyme activity, 500 pM huTLL-2 (Human TLL2): 0.1 nM
IC50, FRET enzyme activity, 800 pM biotinylated mTLL-1 (Mouse TLL1): 0.13 nM
IC50, FRET enzyme activity, 750 pM biotinylated cynoTLL-1 (Cyno TLL1): 0.08 nM
B7: 13Y039-4B06-4373 (antibody, human IgG1, kappa, V domains shown)
VH: B3 VH with M30R, G31S, W50I, N59S, I76T, A79V, R85S, D89E
VL: B3 VL
notes: as for B3

IC50, FRET enzyme activity, 500 pM huTLL-2 (Human TLL2): 0.05 nM
IC50, FRET enzyme activity, 800 pM biotinylated mTLL-1 (Mouse TLL1): 0.13 nM
IC50, FRET enzyme activity, 750 pM biotinylated cynoTLL-1 (Cyno TLL1): 0.11 nM
B8: 13Y039-4B06-4364 (antibody, human IgG1, kappa, V domains shown)
VH: B3 VH with M30R, N35S, S54N, N59I
VL: B3 VL
notes: as for B3

IC50, FRET enzyme activity, 500 pM huTLL-2 (Human TLL2): 0.15 nM
IC50, FRET enzyme activity, 800 pM biotinylated mTLL-1 (Mouse TLL1): 0.88 nM
IC50, FRET enzyme activity, 750 pM biotinylated cynoTLL-1 (Cyno TLL1): 0.22 nM
B10: 13Y039-127G03-2890 (antibody, human IgG1, kappa, V domains shown)
VH: QVQLVQSGAEVKKPGSSVKVSCKASGGTFSSYAISWVRQAPGQGLEWMGGIIPVFGSAYYAQKFQGRVTITADESTSTAYMELSSLRSEDTAVYYCAGEGRAYYGSESYDDSDYMDVWGKGTTVTVSS
VL: DIQMTQSPSSLSASVGDRVTITCQASQDISNYLNWYQQKPGKAPKLLIYDASNLETGVPSRFSGSGSGTDFTFTISSLQPEDIATYYCQQADIFPLTFGGGTKVEIKR
notes: as for B3

IC50, FRET enzyme activity, 500 pM huTLL-2 (Human TLL2): 0.2 nM
IC50, FRET enzyme activity, 800 pM biotinylated mTLL-1 (Mouse TLL1): 0.07 nM
IC50, FRET enzyme activity, 750 pM biotinylated cynoTLL-1 (Cyno TLL1): 0.11 nM
B12: 13Y039-152B02-2935 (antibody, human IgG1, kappa, V domains shown)
VH: QVQLVQSGAEVKKPGSSVKVSCKASGGTFSESAISWVRQAPGQGLEWMGGIIPTFDTTNYAQKFQGRVTITADESTSTAYMELSSLRSEDTAVYYCARDVGVQLVYHGAFDIWGQGTMVTVSS
VL: B10 VL with E55A, A91D, I93Y, F94L, L96I
notes: as for B3

IC50, FRET enzyme activity, 500 pM huTLL-2 (Human TLL2): 0.86 nM
IC50, FRET enzyme activity, 800 pM biotinylated mTLL-1 (Mouse TLL1): 0.11 nM
IC50, FRET enzyme activity, 750 pM biotinylated cynoTLL-1 (Cyno TLL1): 0.07 nM
B13: 13Y039-152B02-2948 (antibody, human IgG1, kappa, V domains shown)
VH: B12 VH with E31D, S32F, T54I, F55Y, D56G, T58A, N59S, Q65L
VL: B10 VL with E55A, A91D, I93Y, F94L, L96I
notes: as for B3

The remaining lines, values behind:

B1: 13Y039-4B06-4324 (antibody, human IgG1, kappa, V domains shown)
VH: B3 VH with M30R, N35S, S54M
VL: B3 VL
notes: as for B3
IC50, FRET enzyme activity, 500 pM huTLL-2 (Human TLL2): 0.04 nM
IC50, FRET enzyme activity, 800 pM biotinylated mTLL-1 (Mouse TLL1): 0.1 nM
IC50, FRET enzyme activity, 750 pM biotinylated cynoTLL-1 (Cyno TLL1): 0.07 nM

B2: 13Y039-4B06-4325 (antibody, human IgG1, kappa, V domains shown)
VH: B3 VH with M30W, N35S, S54Q
VL: B3 VL
notes: as for B3
IC50, FRET enzyme activity, 500 pM huTLL-2 (Human TLL2): 0.05 nM
IC50, FRET enzyme activity, 800 pM biotinylated mTLL-1 (Mouse TLL1): 0.07 nM
IC50, FRET enzyme activity, 750 pM biotinylated cynoTLL-1 (Cyno TLL1): 0.05 nM

B5: 13Y039-4B06-4328 (antibody, human IgG1, kappa, V domains shown)
VH: B3 VH with M30H, S54L
VL: B3 VL
notes: as for B3
IC50, FRET enzyme activity, 500 pM huTLL-2 (Human TLL2): 0.02 nM
IC50, FRET enzyme activity, 800 pM biotinylated mTLL-1 (Mouse TLL1): 0.07 nM
IC50, FRET enzyme activity, 750 pM biotinylated cynoTLL-1 (Cyno TLL1): 0.07 nM

B6: 13Y039-4B06-4348 (antibody, human IgG1, kappa, V domains shown)
VH: B3 VH with M30G, N35S, S54N, N59Y
VL: B3 VL
notes: as for B3
IC50, FRET enzyme activity, 500 pM huTLL-2 (Human TLL2): 0.04 nM
IC50, FRET enzyme activity, 800 pM biotinylated mTLL-1 (Mouse TLL1): 0.12 nM
IC50, FRET enzyme activity, 750 pM biotinylated cynoTLL-1 (Cyno TLL1): 0.18 nM

B9: 13Y039-4B06-4327 (antibody, human IgG1, kappa, V domains shown)
VH: B3 VH with M30P, N35T, W50N, S54N, E57W
VL: B3 VL
notes: as for B3
IC50, FRET enzyme activity, 500 pM huTLL-2 (Human TLL2): 0.03 nM
IC50, FRET enzyme activity, 800 pM biotinylated mTLL-1 (Mouse TLL1): 0.04 nM
IC50, FRET enzyme activity, 750 pM biotinylated cynoTLL-1 (Cyno TLL1): 0.02 nM

B11: 13Y039-152B02-2940 (antibody, human IgG1, kappa, V domains shown)
VH: B12 VH with E31S, S32D, P53T, T54N, D56G, T58A, N59T
VL: B10 VL with E55A, A91D, I93Y, F94L, L96I
notes: as for B3
IC50, FRET enzyme activity, 500 pM huTLL-2 (Human TLL2): 0.28 nM
IC50, FRET enzyme activity, 800 pM biotinylated mTLL-1 (Mouse TLL1): 0.1 nM
IC50, FRET enzyme activity, 750 pM biotinylated cynoTLL-1 (Cyno TLL1): 0.06 nM
